# Reference: a protein production outcome set (Wang et al. 2014)
# Experiment: label from the status in PepcDB records
row,Sequence,protein production
1,MFIKAERLLIRKFEFKDWEAVHEYTSDSDVMKYIPEGVFTEEDTRNFVNKNMGENAKNFPVILIGENILVGHIVFHKYFGEHTYEIGWVFNPKYFNKGYASEAAQATLKYGFKEMKLHRIIATCQPENTPSYRVMEKIGMRREGYFKKCIPHGNEWWDEYYYAILEEE,not failed
2,MRIFKALLKMEFLLTKRQLANLIMAIGMPVAFFLFFSGFMGEGLTKAIEAIYVRNYMITMAGFSSLSFAFFTFPFSMKDDQLSNRMQLLRHSPVPMWQYYLAKIIRILFYYCLAITVVFLTGHILRQVSMPIEQWMQSFLLLLGGATCFIPFGLLVSYFKNTELMSMVANICYMSLAVLGGMWMPITMFPKWLQALSKLTPTYHLTQVILSPFANSFAGFSLIILIGYGIIMLVIAYLLSQKRHSI,failed
3,MKQEETLTKVKVAEVTHSIFYAPLYVAESKGFFKEEGLDVDVNTTWGGDKTMTSLLSNGSDIALVGSETSIYVEAQGAKDPVINFAQLTQTDGTFLVAREDVEHFDWDQLKGKTFLGQRKGGMPQMVGEYVLNKHKIDPHKDIDLIQNIDFANIANAFASGTGEYVQLFEPQLLSLRKKASAISWLHSEKNQERFLIRLLWRNKAILEHHHHHH,failed
4,MSLVNSLTHYEILRIPSDATQDEIKKAYRNRLLNTHPDKLSKSIHDTVSNVTINKIQDAYKILSNIKTRREYDRLILENYK,not failed
5,MVIRELNNNWQSHAFDGYEVNWTEQQQTVSCLHTLVYPLAQGQGLHVTGISWNSTGSVLACAYGRLDDGDWSTLKSYVCTWNLDRQGLNPQQPSVVVEVPSAVMCLAFHPTQPSHIAGGLYSGEVLVWDMSRPEDPLLWRTGLTDDTHTDPVYQVLWLPEPRHSHRFQVLSAATDGKVLLWRGSGAGQLRLTKGFALAVQQLPRSTKLKKPPRGETEVGVTSVAFSSFDSSLFVLGTEGGFPLKCSLASEVAALTRMPSSVPLRAPVQFTFSPHGGPVYSVSCSPFHRNLFLSAGTDGHVHLYSMLQAQPLTSLQLSHKYLFAVRWSPVRPLVFAAASGEGDVQLFDLQKSSQKPTVSITQTQDGSPVYCLEFNSQQTQLLAAGDAKGMVKVWQLSTAFTEQGPREVEDLDQLEAEITT,failed
6,MAILLALIPIMMIFICLFLFKQTSLRSSLIAYVVSVGIVLLSPMFQLGISETVHATIKGSLICFIVGYVLFFGIFLFHLMNKMGYIDQVARFLEEVTHDRLLQMLLMCFGICPLIESVSGFGIGFMVAAPIFLSLGYKPFQAVLLSFIGLLASSWGAMATGTIIGSQLINMPLTTLGTNTALLSIPMFAYFVILSLHVVGGWQAVIEKWKEGIGFFLLFSLGIYLSNAYVSVELAGILSSIVTITFGFLIIKLKGKSEQNLMSEHAAATEREVSIIKIISPYIFLTVCILLSRLVPALHDVFRSYAVLDLKSFSYKLEMLYSPGFWLGMTCLFTIIFFRIPSNIIKQSLSQTIKQWIPFAITTTMFIAISELMGASGMHSLLAKTAGETFGTFFVFVAPFIGGIGGFLTGSNAGSNAMFIKLQMQTAQNVALPWQYVTTLQNTASSVATIACPSRITLGAYLCNIPYRENELLKKTTLMIFGAVLLIVVEVIFWYMLRN,failed
7,MSPDSCPLVKNILLLDSEGKRVAVKYYSDDWPTNAAKLSFEKYVFSKTSKTNARTEAEITLLDSNIIVYKFAQDLHFFVTGGENENELILASVLQGFFDAVALLLRSNVEKMEALENLDLIFLCLDEMVDQGVVLETDPNVIAGKVAMQSTEASGSLSEQTLTQALATAREHLARSLLT,failed
8,SNQDITQPTAIIAVVGVGAEQGIGAAVCRRFAQEKFKVYVAGRTLNKVEKVAAAIHRQGGQAVAYVLDAENEQQLQTLFDHLNDQPEALAAVIHNVGGNIPSIFLQSSLKFFSQMWRSTFLSSVLVAQRSLSIFQKQQQGTLIFTGASASLRGKPFFAAFSMGKSALRSYALNLAELYRSQNIHVAHVMVDGMVDGDRVNKALWGLGRLARLTRGTGGLNIDAIAENYWMLYQQNVDLWT,failed
9,MEPANMTVAEYLNYWLDTYPKNNVAPSTYRRYTEFAAHIKTHIGGIMMPKLKPAHIQSFYSSLLEKNLSKSTVLKIHRMLHLALKHAVNWQIIISNPTDAVTLEHHHHHH,failed
10,MKDIVIIGTENIGKEVVKIIEAINSKRNTWNVLGFISLKKDEEGSNIEGYSVLESIDSMFNYFEGRKKDKFYFFKKLESQNELFTIIAIDNCKLKKEIENKLKNKIKFATIIHPDVSFFNKQEVGEGTIIYPGLIVVGRFKLGKHVILKQKCSLGNNIEIGDYSFISFNSNIDSNVMVKEGSYIEANTTILANSNIDKNTYIKEGSILY,failed
11,MEPTGLMVAAPTASLPEAIGGERNWDYRFTWIRDTAYVIEALSSIGYKYEATEFLYDMMDMITRDNRIRTIYSIDDSNDLEERIIDYEGYRGSRPVRIGNKAVDQLQIDQYGSIVRAIHSMAKAGGIVNSYLWDFVEQVMAKIEYLWKYPDSSIWEFRTEPKQYVYSKVMSWAAFDSAISMAKDLGLSAPIKQWKSIQDEIKKEVLEKGFDTDTNSFVQYYGSKNIDAALLRLPILGFIPANDEKFLGTLSRIEKELMVDGYLFKRYREDDGLKGDEGSFLMLTFWYIEDLILMKRLKKAREVLESVLEKANHLGLYSEEIDEKSGDFLGNFPQALSHLGVIRVAPKLEEALLLEHHHHHH,failed
12,MPSSTFSGTVSTPKLSVAVDMGNPFLNLTVDAFLKIGAVGVTKSLAEDTYKAIDKGSLSKSTLEHALKKLCKEGVYWGAAGGVYIGTEYGIERIRGSRDWKNAMLAGAATGAVLSAVGKKGKDTIVIDAILGGALATASQFVNNHYFY,failed
13,GNLSFLATSDGASLAYRLDGAAEKPLLALSNSIGTTLHMWDAQLPALTRHFRVLRYDARGHGASSVPPGPYTLARLGEDVLELLDALEVRRAHFLGLSLGGIVGQWLALHAPQRIERLVLANTSAWLGPAAQWDERIAAVLQAEDMSETAAGFLGNWFPPALLERAEPVVERFRAMLMATNRHGLAGSFAAVRDTDLRAQLARIERPTLVIAGAYDTVTAASHGELIAASIAGARLVTLPAVHLSNVEFPQAFEGAVLSFLGA,not failed
14,MSAPLPLCVIGAGCVGMRHVEVARRSPQIRLTAVVEPVETRRRALAESGLVAVATLEEVPRETRAAIVATPTPDHLATGLAALSRGWAVLVEKPTAGTMDDARVLLGAADRAGLPLYVGHHRRCHPFSRAAREALGGIGDLVGLQGLWSLRKHDSYYAEDWRRQAGAGPLMTNLSHEIDLLRFLVGDMVEVSALTSSARRGLVVPDTAALAFRFADGALGSFLISDAGASPWSFEAACAENPAIAVSGQDYIRITGTAGALEFPSLTRWGRSAPGEIEWSKPLARAAGAGFARVDPLLEQINRFAAVLEGAQDDVLCTGTDGNAALEMTLAAALSGKLGRPVRAHEVPGDYSGI,failed
15,MRGYYDEISFDVNTTAKKMHLFLMRSIASYDVTPEQWSVLEGIEANEPISQKEIALWTKKDTPTVNRIVDVLLRKELIVREISTEDRRISLLSLTDKGRKETTELRDIVEASCEKMFAGVTRTDLEQFTAILKNISTNIE,not failed
16,SYTEVRELVNFVCRYLFGHIPRRPVGIFGAELGNYLVSHFSSTWDVHHPKNGEMKRMINTTTSLCFASSAEEAGVPPSDVLRLLPTNMIIFANPGHVFVRLSENGIETPIWIGDVNCDENYQSVPEYVVRTAAIRAEPCSNLGAAGKSVLVGKKPLLTNDKAALEMVNTMYSPLAREKCDDINANLSHLREMYPFRFVYKPSSAQTFSGVEFSQTRFGSSKSRPDLQTMDVIKYLSSQQVSSSSSPSFTYSSINDQMRYSPRF,not failed
17,MTTDQHQEILRTEGLSKFFPGVKALDNVDFSLRRGEIMALLGENGAGKSTLIKALTGVYHADRGTIWLEGQAISPKNTAHAQQLGIGTVYQEVNLLPNMSVADNLFIGREPKRFGLLRRKEMEKRATELMASYGFSLDVREPLNRFSVAMQQIVAICRAIDLSAKVLILDEPTASLDTQEVELLFDLMRQLRDRGVSLIFVTHFLDQVYQVSDRITVLRNGSFVGCRETCELPQIELVKMMLGRELDTHALQRAGRTLLSDKPVAAFKNYGKKGTIAPFDLEVRPGEIVGLAGLLGSGRTETAEVIFGIKPADSGTALIKGKPQNLRSPHQASVLGIGFCPEDRKTDGIIAAASVRENIILALQAQRGWLRPISRKEQQEIAERFIRQLGIRTPSTEQPIEFLSGGNQQKVLLSRWLLTRPQFLILDEPTRGIDVGAHAEIIRLIETLCADGLALLVISSELEELVGYADRVIIMRDRKQVAEIPLAELSVPAIMNAIAA,failed
18,KLIGITGMPGSGKSAITKLAEKYKIVVVSMGDVVRYETLKQGMPLNPENVGNTAVKLREIYGKEAIAVPCLNYVNEKYNNEDFVIIEGIRSIYEVNYIKKHAELDIIAIHSSPKTRFERLSGRNREDDSNDWNTFVERDERELNFSIGRVISLADYMVVNEGNYMDFVNDLENTFKKIINV,failed
19,SWLYGKSDARWTITEYADLECPYCRTYTPQLMQWIDGQTDVNLVWHHFPLQMHGAATLKEARLVQCAGKLGGGKAFWNAIDQVLKHTRGDGQGLVTSIALSGIDAVVLDRCATLDADVALHVDQQLQLAQQAGVTATPTIKITDTQTRHSVRLEGPVDEVSILSAMDRLAFESK,failed
20,MKIRTIARASLLSAAIALAVTGCNSEPDMSQEDIQYISHVDQARFFQRQGELKASTIEARSAIDLQPNRTAPYFVIIHNLLTAGDAANAERQLDKLLENTNIEELGQSERNQAALIRAEARILQGKHQEALESLDQISSPSPDQQLQADNLKGRAWLTSGDFDKAEEAYQSAFDKHSNNVVAMVGLSRVATAKGDFDTAKERLEKAIEIDAEHEDVWLWRAQFAHAQQQWAEAEQAYIRALETIGQFDVMTFRKYQTISALITVLREQGKSAEAFVYEEILAKSGPGTIKSNLEAAASAYNDGDLNTAARYLQEVLNQVPNHQQSALMLGVIRYRQGRPEEAEKLLAPLADMENADEVRKLLAATRISMRDPAGAKSLLEDLEGSDADPQTLALVGIASLASGDDQSGRQLLEKSLELAPDNHNLRLRYAAYLTQTRDFANAIKQARQIPSDATEALQATILTSQAQALSGNSQTATDTLDTWLKANPDSMAALIARGNLASSLNNTQQAASYFERAHKQHPEEAAPLVALGNLAREQQNTEQAIAWYRQAVETNPNNLPAIQALAGVMKRDQLTGLMQEISSKHPEANGPRLILLESALINNDTLQADELTARLMEREREDQPSPAEPLVAAVYEGIATQMAQRENSERALEILSRGRTLFPENEAIALKVAAIEFSNGNATAARSALQDAKQHHPDSPAPYQVEASYYENQGEHQQAAELYQLALAKRQTAELAIAHARALSNAGRSQNSIEALQEANKQFPNNSSILLTLALQTQQAGQTDAAIEHYQQVLQLTPDNALALNNLAWLYYEAGNSEAASLAKRAYELVPENAAIADTYGWILFEAGEHEQSLAVLERAHSLAPDSQEIAMHLAEAYRATGRTDAAQQIMDKFSTGNNG,failed
